pKd: −log10 of the molar value.
Columns and labels:
[1] = target: ACE2, membrane-anchored, endogenously expressed on VeroE6 cells (African green monkey (endogenous in VeroE6)); test: single-molecule force spectroscopy (AFM)
[2] = target: ACE2, membrane-anchored, endogenously expressed on VeroE6 cells (African green monkey (endogenous in VeroE6)); test: single-molecule force spectroscopy (AFM) + kinetic model

Work on “SARS-CoV-2 Delta variant Spike trimer (from UniProt P0DTC2) (natural protein)” yielded a pKd [1] of 9.30, an on-rate of three bonds [1] of 23 s⁻¹ and an on-rate of two bonds [1] of 80 s⁻¹. The percentage of one bond [1] was 68.7%, the bond lifetime at 20 pN (calculated) [2] was 460 s and the bond lifetime at zero force (calculated) [2] was 42000 s.

In the case of “SARS-CoV-2 Omicron (B.1.1.529) variant Spike trimer (from UniProt P0DTC2) (natural protein)”, the pKd [1] was 10.26, the on-rate of two bonds [1] was 49 s⁻¹ and the percentage of one bond [1] was 85.4%. The percentage of three bonds [1] was 1%, the percentage of two bonds [1] was 13.6% and the bond lifetime at 20 pN (calculated) [2] was 960 s. It also gave a bond lifetime at zero force (calculated) [2] of 370000 s.

In the case of “SARS-CoV-2 Omicron (B.1.1.529) variant RBD monomer (from UniProt P0DTC2) (domain or fragment)”, the pKd [1] was 10.17.

Work on “SARS-CoV-2 Delta variant RBD monomer (from UniProt P0DTC2) (domain or fragment)” yielded a pKd [1] of 9.01.

Reference: article PMC9789309
